Source: patent EP4702992A1, “ANTIBODY-DRUG CONJUGATE” (priority 2023, dated 2024)

Columns and labels:
[1] = molecular target: DLL3 on the surface of NCI-H209, SHP77, NCI-H526, NCI-H82 and NCI-H69 cells (human) (UniProt Q9NYJ7); assay: flow cytometry, D-ADC55-1-8 (15 µg/mL) on NCI-H82 cells, anti-human IgG Alexa Fluor 488
[2] = molecular target: DLL3 on the surface of NCI-H209, SHP77, NCI-H526, NCI-H82 and NCI-H69 cells (human) (UniProt Q9NYJ7); assay: flow cytometry, D-ADC55-1-8 (15 µg/mL) on NCI-H526 cells, anti-human IgG Alexa Fluor 488
[3] = molecular target: DLL3 on the surface of NCI-H209, SHP77, NCI-H526, NCI-H82 and NCI-H69 cells (human) (UniProt Q9NYJ7); assay: flow cytometry, D-ADC55-1-8 (15 µg/mL) on NCI-H209 cells, anti-human IgG Alexa Fluor 488
[4] = molecular target: DLL3 on the surface of NCI-H209, SHP77, NCI-H526, NCI-H82 and NCI-H69 cells (human) (UniProt Q9NYJ7); assay: flow cytometry, D-ADC55-1-8 (15 µg/mL) on NCI-H69 cells, anti-human IgG Alexa Fluor 488
[5] = molecular target: DLL3 on the surface of NCI-H209, SHP77, NCI-H526, NCI-H82 and NCI-H69 cells (human) (UniProt Q9NYJ7); assay: flow cytometry, D-ADC55-1-8 (15 µg/mL) on SHP77 cells, anti-human IgG Alexa Fluor 488

DLL3 on the surface of NCI-H209, SHP77, NCI-H526, NCI-H82 and NCI-H69 cells (human), sequence (Q9NYJ7 27-618): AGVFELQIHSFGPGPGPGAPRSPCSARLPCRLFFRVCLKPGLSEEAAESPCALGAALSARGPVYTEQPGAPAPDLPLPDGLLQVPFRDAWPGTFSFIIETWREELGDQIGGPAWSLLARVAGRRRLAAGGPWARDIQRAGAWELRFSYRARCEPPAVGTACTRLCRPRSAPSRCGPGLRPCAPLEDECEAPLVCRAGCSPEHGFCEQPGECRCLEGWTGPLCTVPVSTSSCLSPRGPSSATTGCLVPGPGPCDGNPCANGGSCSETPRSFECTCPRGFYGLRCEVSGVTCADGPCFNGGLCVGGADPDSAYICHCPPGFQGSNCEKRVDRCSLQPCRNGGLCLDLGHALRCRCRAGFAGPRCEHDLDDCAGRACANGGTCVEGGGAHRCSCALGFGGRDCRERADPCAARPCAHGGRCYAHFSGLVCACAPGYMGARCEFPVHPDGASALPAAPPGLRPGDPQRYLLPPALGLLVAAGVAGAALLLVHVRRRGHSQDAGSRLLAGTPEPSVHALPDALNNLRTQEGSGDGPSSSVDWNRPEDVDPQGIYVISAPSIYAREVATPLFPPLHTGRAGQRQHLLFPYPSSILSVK

B1: D-ADC55-1-8 (antibody, human IgG1, kappa, L234A L235A, V domains shown)
VH: QVQLVQSGAEVKKPGASVKVSCKASGYTFTDYYMKWVRQAPGQRLEWMGAFNLNNGDTFYNQKFKGRVTITRDTSASTAYMELSSLRSEDTAVYYCARDVYGYGDYWGQGTSVTVSS
VL: DIVMTQSPDSLAVSLGERATINCRASKSVSTSGYSYMHWYQQKPGQPPKLLIYLASNLDSGVPDRFSGSGSGTDFTLTISSLQAEDVAVYYCQHSRELPYTFGGGTKLEIKR
modifications: linker-drug LD55-1 (exatecan payload) conjugated to sulfhydryls of reduced interchain disulfide cysteines; average DAR 8.0 per antibody
DLL3+ % [1]: 11.2% | Experimental well: negative control ratio [1]: 5.02 | DLL3+ % [2]: 29.1% | Experimental well: negative control ratio [2]: 3.73 | DLL3+ % [3]: 44.4% | Experimental well: negative control ratio [3]: 7.73 | DLL3+ % [4]: 5.29% | Experimental well: negative control ratio [4]: 3.03 | DLL3+ % [5]: 35.8% | Experimental well: negative control ratio [5]: 3.23
